In US12624096B2, “Anti-tau antibodies and methods of use thereof” (GTInvent Limited, priority 2020, dated 2026):

How the values were obtained:
dGAE [1] = target: T1, dGAE (Homo sapiens, UniProt P10636); assay: Thioflavin T dGAE aggregation inhibition assay; assay type: biochemical; details: 10 μM test protein; 100 μM dGAE, 10 mM DTT, 24 h
Protocol: By incubating 100 μM dGAE and 10 mM DTT at 37° C., on a thermomixer at 700 rpm for 24 hours, “pathology mimicking” aggregates which have the morphology of paired helical filaments are formed. This aggregation can be quantified by adding a final concentration of 12.5 μM Thioflavin T (fluorescent dye) which binds to fibril-like β-sheets. Fluorescence was measured with a constant emission wavelength of 480 nm and a scanning excitation wavelength of 350-470 nm using a Varian Cary Eclipse fluorescence spectrophotometer. Maximal fluorescence measurements were used as an indicator of dGAE aggregation (approximately 450 nm excitation). The assay was optimised using a range of S1D12 scAb concentrations (0.04 to 25 µM) and tested for levels of aggregation inhibition as shown in FIG. 35.
Based on FIG. 35, 10 μM scAb was deemed an adequate concentration to compare and rank individual scAb-mediated dGAE aggregation inhibition events. […] A similar inhibition (40%) was seen using 10 μM bovine serum albumin as a negative control (data not shown).

plasma tau = assay: Plasma tau (Simoa) in L66+/- mice treated with LMTM; assay type: in vivo, mouse
Protocol: The effect of the tau aggregation inhibitor LMTM on the levels of plasma tau in a L66^+/− mouse line was investigated with two assays, both utilising the 3-step Simoa® protocols described above. Using the human specific NT1 assay (BT2 capture with Tau12 detection), low levels of tau (0.41±0.09 pg/ml) were detected in the plasma of 5-month-old L66^+/− that were treated with vehicle control solution (FIG. 50A). At the same time, an increase in tau levels was measured in the plasma of L66^+/− mice that had received an oral administration of LMTM (15 mg/kg) during the time period (1.28±0.11 pg/ml).
This hypothesis was supported by our core-proline antibody assay in which S1D12 antibody coated capture beads and BT2 detector was used (FIG. 50B). This assay detects both human and mouse tau which explains the higher levels of tau detected.

dGAE aggregates = dGAE aggregates (Homo sapiens, UniProt P10636); assay: Epitope occlusion sandwich ELISA (423 mAb capture) of dGAE aggregated with/without LMTM; assay type: binding; details: LMTM 1:5 ratio
Protocol: During dGAE aggregation in vitro, scAb binding regions on dGA/dGAE are ‘hidden’ or ‘occluded’ which leads to a loss of immunoreactivity in aggregation samples. Here we have shown the occlusion of binding regions in aggregated dGAE samples and the recovery of immunoreactivity in the presence of LMTM, a tau-aggregation inhibitor. For preparing the aggregates, 10 μl 10 mM DTT was added to 1000 μl 100 μM dGAE and agitated with/without LMTM (1:5 ratio) at 700 rpm for 24 h at 37° C. […] The pellet was then resuspended in half the original volume for further experiments. […] Doubling dilutions of dGAE aggregate ‘total’, ‘supernatant’ and ‘pellet’ samples at 10 μg/ml starting concentration were added to designated wells in doubling dilutions in 1×PBS, dGAE monomer (non-aggregated) was included as assay control. All double dilutions were done in final volumes of 100 μl. This was left to incubate on lab bench for 1 h followed by the addition of test scAbs at 10 μg/ml. Anti-HuCk HRP labelled secondary antibody was added as described previously and ELISA data generated is represented using the graph below.

[2] = test system: hT40, dGA, dGAE and truncated tau fragments/peptides; assay: Binding ELISA for epitope mapping with truncated tau proteins and biotinylated 13mer peptides; set-up: species or system human; details: direct binding ELISA
Protocol: A series of binding ELISA was performed using various truncated versions of the tau protein and 13mer peptide libraries spanning the entire hT40 molecule for mapping the epitopes of anti-tau scAbs (Full list of protein antigens used is given in Table 14). In general, ELISA plates were coated with 1 μg/ml hT40 or dGA or dGAE or other truncated versions of the protein and in the case of biotinylated peptides, plates were coated with 5 μg/ml Streptavidin followed by 1 μg/ml biotinylated peptide. The plates were blocked with 2% MPBS and scAb samples added at desired starting concentrations and double diluted across the plate. Binding was detected using anti-Human C Kappa HRP conjugated secondary antibody and the resulting immunoreaction was developed and absorbance values measured as described above.
Similarly, dGA binding ‘NS’, ‘S’ and ‘M’ group scAbs were subjected to further antigen binding ELISA using shorter tau proteins and biotinylated 13mer peptides as shown below (FIGS. 10A-F) and (FIGS. 11A-R).
For anti-tau mAb SPR measurements (Biacore X100™) and epitope mapping, the same methodologies described above (see Example 16) were followed.

dGAE [3] = target: T1, dGAE; assay: Biacore X100 SPR, scAb captured via anti-HuCk, dGAE as analyte; assay type: binding; details: dissociation rate
Protocol: Surface plasmon resonance (SPR) is widely regarded as the gold standard for real time measurement of protein-protein interactions such as antibody binding. All SPR experiments were carried out using a Biacore X100 machine and HBS EP+ running buffer (GE Healthcare). A ‘capture’ method was followed for affinity measurements, where an anti-human constant kappa chain (HuCk) antibody was conjugated to the surface of a CM5 sensor chip using an amine coupling kit and scAb molecules were immobilised via their HuCk domain. Amine coupling is a very common approach for immobilising the ligand to the chip surface. The chip surface has a dextran matrix derivatised with carboxyl groups, which after activation with N-hydroxysuccinimide (NHS) and 1-ethyl-3-(3-dimethylaminopropyl) carbodiimide (EDC), form reactive succinimide esters which allows the covalent capturing of the ligand via any available primary amine groups (e.g. Lysine) on the ligand (in this case anti-HuCk antibody). The capture antibody was diluted 1/100 in 10 mM Sodium acetate buffer pH 5.0 and passed over the activated chip surface for a period of at least 420 s. […]
The single cycle kinetics protocol was similar and utilised the same level of scAb capture. […] Binding responses were analysed in Biacore X100 evaluation software and data fitted to a 1:1 binding model to obtain kinetic and affinity characterisation.

hT40 [4] = target: T2, hT40 (Homo sapiens, UniProt P10636); assay: Sandwich ELISA, limits of detection (LoD) of antibody pairs; assay type: binding; details: S1D12 mAb capture, detection scAb
Protocol: Full length tau (hT40), at 1 μg/ml starting concentration was added to designated wells and double diluted across rest of the plates and left to incubate at R/T for 1 h. A series of detection scAbs with varying epitope recognition properties were added at 10 μg/ml to designated wells (FIG. 22). For colourimetric detection HRP conjugated anti-HuCk secondary antibody was used and the resulting immunoreaction was developed and absorbance at 450 nm measured as described previously. Cut-off point for a positive binding event was an absorbance value of 0.3 following background subtraction. In order to enhance the assay sensitivity, a chemiluminescent detection method was adopted where 50 μL SuperSignal ELISA Femto Substrate (Thermo Scientific) was added to each well following incubation with anti-HuCK HRP antibody and subsequent washing. The luminescence was read using Clariostar Plus microplate reader. A further modification to this protocol was done where various detection scAbs were directly conjugated with HRP and detected using chemiluminescent protocol as before. The lowest levels of detection achieved using different detection scAbs and a comparison of colourimetric and chemiluminescent methods of detection are shown in Table 28
The assay was conducted using chemiluminescent protocol described above.

hT40 [5] = target: T2, hT40; assay: Biacore X100 SPR, scAb captured via anti-HuCk, hT40 as analyte; assay type: binding; details: scAb
Method in brief: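 Captured scAb on anti-HuCk CM5 surface (flow cell 1 as reference) in HBS-EP+, capture set for theoretical RMax 100 RU; hT40 injected multi-cycle (0.15625–100 nM) or single-cycle (6.25–100 nM), 120 s association, 420 s dissociation, glycine pH 2.0 regeneration. Kinetics and affinity from 1:1 binding model fit.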

T1 sequence (P10636 614-708): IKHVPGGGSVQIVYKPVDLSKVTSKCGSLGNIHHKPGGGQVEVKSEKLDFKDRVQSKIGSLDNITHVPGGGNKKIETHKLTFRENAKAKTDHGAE
T2 sequence (P10636 1-441 isoform P10636-8): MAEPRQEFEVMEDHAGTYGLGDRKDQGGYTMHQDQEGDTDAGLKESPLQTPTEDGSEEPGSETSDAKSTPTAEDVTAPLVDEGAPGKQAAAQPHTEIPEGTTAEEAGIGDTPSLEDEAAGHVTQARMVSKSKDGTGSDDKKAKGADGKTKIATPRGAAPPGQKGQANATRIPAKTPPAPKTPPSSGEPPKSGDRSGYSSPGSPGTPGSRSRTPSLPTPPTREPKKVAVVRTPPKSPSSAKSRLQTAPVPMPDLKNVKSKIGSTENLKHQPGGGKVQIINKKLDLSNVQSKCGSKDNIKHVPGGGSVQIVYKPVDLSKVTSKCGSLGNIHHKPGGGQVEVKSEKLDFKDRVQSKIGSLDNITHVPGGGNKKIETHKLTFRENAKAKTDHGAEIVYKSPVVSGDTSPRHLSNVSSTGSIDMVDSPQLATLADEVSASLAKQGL
dGAE aggregates, sequence (P10636 614-708): as the sequence (P10636 614-708) above

bovine serum albumin: negative control protein in thioflavin T assay [reference compound]
inhibition of dGAE aggregation (dGAE [1]): 40%

CN(C)c1ccc2c(c1)Sc1cc(N(C)C)ccc1N2.CS(=O)(=O)O.CS(=O)(=O)O [LMTM]
plasma tau, NT1 assay (BT2 capture with Tau12 detection) (plasma tau; 5-month-old L66+/- mice, oral LMTM 15 mg/kg): 1.28 ± 0.11 pg/mL | plasma tau, core-proline assay (S1D12 capture beads, BT2 detector) (plasma tau; L66+/- mice, LMTM 15 mg/kg): 142.08 ± 12.08 pg/mL | effect of LMTM on dGAE aggregation and immunoreactivity (dGAE aggregates): preventing the aggregation event, leading to an increased immunoreactivity

B1: E1E8: anti-tau clone, SEQ ID NO: 250 (protein)
scFv: QVQLQESGPSLVKPSQTLSLTCTVSGFSLTDWGVAWVRQAPGKALEWLGTMRSGGTTDDNPALKSRLSITRDTSKSQVSLSLSSVTTEDMAMYYCARGYLSGVHYAWGRGLLVTVSSEGKSSGASGESKVDDQAVLTQPSSVSGSLGQSVSITCSGSSSNVGDGRYVSWFQQVPGSAPKLLIYDTTSRASGVPDRFSGSRSGNTATLIITSLQAEDEADYYCASIDSGNNLLFGSGTRLTVLG
modifications: E1E8 amino acid sequence
cross-reactivity of 'E' group scAbs using hT40, dGA and dGAE antigens [2]: specific dGAE binding | Kd (dGAE [3]): 0.0014 s⁻¹

B2: CA2: anti-tau clone, SEQ ID NO: 363 (protein)
scFv: QVQLQESGPSLVKPSQTLSLTCTVSGFSLSSVAVNWVRQAPGKVPEWLGGIISNGGTGYNPALKSRLSITRDTSKSQVSLALTHVTTEDTAVYYCGRGVEWEGSMDYLGPGLLVTVSSEGKSSGSGSETKVDDQSVLTQPSSVSGFLGQRVTITCSGSSSNVGAGSYVGWYQQVPGSGLRILIYGATKRASGLPDRFSGSRSGNTATLTISSLQAEDEADYYCVSYQTDFTLVFGSGTRLTVLG
modifications: CA2 amino acid sequence
LoD chemiluminescence detection (hT40 [4]): 0.37 ng/mL | LoD colourimetric detection (hT40 [4]): 6 ng/mL

B3: E2E8: anti-tau clone, SEQ ID NO: 248 (protein)
scFv: QVQLQESGPSLVKPSQTLSLTCTVSGFSLTDRGVAWVRQAPGKALEWVGTMRSGGTIDYNPALKSRLSITRDTSKSQVFLSLSSVTTEDMAMYYCARGYLSGDRYAWGRGLLVTVSSEGKSSGASGESKVDDQAVLTQPSSVSKSLGQSVSIACSGSRSDIGYGNYVSWFQQIPGSAPKLLIYDTNTRASGVPDRFSGARSGNTATLTINSLQAEDEADYYCANIDSSRSHLFGSGTRLTVLG
modifications: E2E8 amino acid sequence
cross-reactivity of 'E' group scAbs using hT40, dGA and dGAE antigens [2]: specific dGAE binding | Kd (dGAE [3]): 0.0001915 s⁻¹ | T441 binding (in words) (hT40 [5]; Table 23): No T441 binding | hT40 binding (in words) (hT40 [5]; Table 26 summary): No hT40 binding
